Tests used:
4T1 murine breast tumour [1] = assay: Efficacy of gemcitabine liposome nanoparticles in the 4T1 murine breast tumour model; assay type: in vivo, mice; conditions: 0.2 mg gemcitabine, intravenously 3 times a week; versus HEL4-coated nanoparticles containing gemcitabine; P=0.0456
Protocol: This study aimed to determine the efficacy of P2X7-binding domain-coated nanoparticles (i.e., “BIL03s-coated”) and HEL4-coated nanoparticles to deliver the cytotoxic agent gemcitabine to tumours in the 4T1 murine breast tumour model.
Nanoparticles were administered intravenously, 3 times a week. Nanoparticles contained either 0.2 mg gemcitabine or PBS buffer (control).
Tumour volume was measured over the study period (see FIG. 10). Mice were terminated when estimated tumour volume exceeded 1000 mm^3.

[2] = tested on: 4T1-luc2 murine breast cancer cells; assay: Biodistribution imaging of fluorescently labelled nanoparticles in 4T1-luc2 tumour bearing mice; assay type: in vivo
Protocol: The near-infrared (NIR) lipophilic fluorescent dye DiR (ThermoFisher) was incorporated into the lipid bilayer of naked nanoparticles, nanoparticles coated with HEL4 (isotype) and nanoparticles coated with variable domains for binding to anti-P2X7R (P2X7-binding domain-coated nanoparticles, or “BIL03s-coated”). Female Balb/c mice were inoculated orthotopically (4th mammary fat pad) with 4T1-luc2 murine breast cancer cells. A 50 μL dose of nanoparticles was injected intravenously at study day 0 and near-infrared (NIR) imaging was performed at 6, 12, 24, 48 and 96 […]. At termination, excised liver, spleen and tumour NIR imaging was performed and bioluminescence imaging was performed on tumour tissues.

4T1 murine breast tumour [3] = assay: Dosing regimen investigation: coated nanoparticles versus free gemcitabine, tumour growth; assay type: in vivo, mice

B1: P2X7-binding domain-coated nanoparticles containing gemcitabine: Liposome of DOPC, oleyl-gemcitabine carbamate conjugate and Maleimido-Succinyl-PEG4000-Oleate, conjugated to an anti-P2X7R single … (conjugate)
VH: EVQLLESGGGLVQPGGSLRLSCAASGFTFRNHDMGWVRQAPGKGLEWVSAISGSGGSTYYANSVKGRFTISRDNSKNTLYLQMNSLRAEDTAVYYCAEPKPMDTEFDYRSPGTLVTVSS
4T1 murine breast tumour [1]
  survival: prolonged survival
  tumour suppression (tumour volume): greater tumour suppression
[2]; ex vivo bioluminescence imaging at 96 hr, FIG. 9, versus naked nanoparticles
  accumulation in the excised tumour: higher accumulation in the excised tumour
[2]; whole animal NIR imaging and ex vivo bioluminescence, 50 μL intravenous on day 0, versus naked or HEL4-coated control nanoparticles
  accumulation in tumours: greater accumulation in tumours
[2]; whole animal NIR imaging, FIG. 7, versus non antibody-conjugated particles
  retention in the tumour: retained in the tumour much longer
4T1 murine breast tumour [3]; equivalent to 0.3 mg gemcitabine, intravenously twice per week (FIG. 11), versus 0.3 mg free gemcitabine
  efficacy for inhibiting tumour growth: comparable
4T1 murine breast tumour [3]; general statement
  release of cytotoxic agent: sustained release
4T1 murine breast tumour [3]; general statement, versus existing cancer treatments
  toxicity: lower toxicity
